# Results as given in the nanobody polyreactivity screen of Harvey et al. (2022).
# Assay: yeast display, Sf9 membrane polyspecificity reagent, FACS + sequencing; frameworks hold sequencing errors
# Method in brief: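 After 36–48 hours of galactose induction, yeast (Saccharomyces cerevisiae BJ5465) displaying a synthetic nanobody library were stained at 4 °C for 1 hour with 10% biotinylated, detergent-solubilized Sf9 membrane reagent. Streptavidin microbeads enriched the stained cells before FACS sorting into low and high (top ~1%) gates on anti-HA and streptavidin fluorescence. Each clone's polyreactivity label reflects its gate of origin.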
row,Sequence,polyreactivity (PSR sort gate)
1,QVQLVESGGGLVQAGGSLRLSCAAYGSTFRRNTMGWYRQAPGKERELVAGISSSGGSTYYADSVKGRFTISRDTAMNTVYLQMNSLKPEDTAVYYCAARYYVSYVGYNYWGQCTQVTVSS,high polyreactivity
2,QVQLVESGGGLVQAGGSLRLSCAAYGSTFSLNTMGWYRQAPGKERELVAAITSGGSTNYADSVKGRFTISRDNAKNTVYLQMNSLKPEDTSVYYCAATPGRGGGYNYWGQGTQVTVSS,low polyreactivity
3,QVQLVESGGGLVQAGGSLRLSCAAYGSTFTDYDMGWYRQAPGKERELVAAITSGGSTNYADSVKGRFTISRDNAKNTVYLQMNSLKPEDTAVYYCAAADADRKYDYWGQGTQVTVSS,low polyreactivity
4,QVQLVESGGGLVQAGGSLRLSCAAYGSTLTRNAMGWYRQAPGKERELVATITATGGSTYYADSVKGRFTISRDNAKNTVYLQMTSLKPEDTAVYYCNKVYREYSLSYWSPTHWAYYYWGQGTQVTVSS,low polyreactivity
5,QVQLVESGGGLVQAGGSLRLSCAAYGYTFGYYTMGWYRQAPWKERQLVASIDSGGGTNYADSVKGRFTISRDNAKNTVYLQMNSLKPEDTAVYYCAAESPLYWVDDFESGWRYYYWGQGTQVTVSS,low polyreactivity
6,QVQLVESGGGLVQAGGSLRLSCADSGFIFLGNARGWYRQAAGKERELVAASSSGGSTYADSVKGRFTISRDNAKNTVYLQMNSLKPEDTAVYYCALDPPFPAQNYHEDDYWGQGTQVTVAS,low polyreactivity
7,QVQLVESGGGLVQAGGSLRLSCADSGFIFWVYAMGWYRQAPGKERELVAAITSGGGSTYYADSVKGRFTISRDNAKNTVYLQMNSLKPEDTAVYYCATSLYTDNSWENYWGQGTQVTVSS,high polyreactivity
8,QVQLVESGGGLVQAGGSLRLSCADSGFIIFRYAMGWYRQAPGKERELVAAITDDGSTYADSVKGRFTISRDNAKNTVYLQMNSLKPEDTAVYYCNVQSKSSYWWFGYDYWGQRTQVTVSS,low polyreactivity
9,QVQLVESGGGLVQAGGSLRLSCADSGFTFATYAMGWYRQAPGKKGRLVAAISNAGSTKYADSVKGRFTISRDNAKNTFYLQLNSLKPEDTAVYYCAASTLYASYYYLYYYWGQGTQVTVSS,high polyreactivity
10,QVQLVESGGGLVQAGGSLRLSCADSGFTFCSYTMGWYRQAPGKERELVAAITGGGNTKYADSVKGRFTISRDNAKNTFYLQMISLKPEDSAVYYCARLSRYKSYYTSRFDYWGQGNQVTVSS,high polyreactivity
11,QVQLVESGGGLVQAGGSLRLSCADSGFTFGVYVMGWYRQAPAKERELVAAISRSGGSTYYADSVKGRFTISRDKAKNTVYLQMNCLKPEETAVYYCNADRLVSYRAGEYDYWGQGTQVTVSS,high polyreactivity
12,QVQLVESGGGLVQAGGSLRLSCADSGFTFKSYTMGWYRQAPGKERELVAAISRRDGSTYYADSVKGRFTISRDNAKNTVYLQMNSLKPEDTAVYYCAKVWYGDRNIDRYDYWGQGTQVTVSS,high polyreactivity
13,QVQLVESGGGLVQAGGSLRLSCADSGFTFSWYTMGWYRQAPGKERELVAALTVSGGSTYYADSVKGRFTISRDNAKNTVYLQMNSLKPEDTAVYYCNAQDPFTYYSSSPTYDYWGQGTQVTVSS,low polyreactivity
14,QVQLVESGGGLVQAGGSLRLSCADSGFTFWYYDMGWYRQAPGKERELVAAITNGGRTYYADSVKGRFTISRDNAKNTVYLQMNSLKPEDTAVYYCAVLGGHGFYQGDYWGQGTQVTVSS,high polyreactivity
15,QVQLVESGGGLVQAGGSLRLSCADSGFTYAYYVMGWYRQAPGKERELVAAISISGGRTYYADSVKGRFTISRDNAKNTVYLQMNSLKPEDTAVYYCAADRRTDGHDYWGQGTQVTVSS,high polyreactivity
16,QVQLVESGGGLVQAGGSLRLSCADSGGTFESYAMGWYRQAPGKERELVAAITGRGGRTYYADSVKGRFTISRDNAKNTVYLQRNSLKPEDTAVYYCAARSPPRGYSRILDYWGQGTQVTVSS,high polyreactivity
17,QVQLVESGGGLVQAGGSLRLSCADSGGTFFGYAMGWYRQAPGKERELVAAIRWSDGRTYYADSVKGRFTISRDNAKNTVFLQMNSLKPEDTAVYYCNADDARLFDYWGQGTQVTVSS,low polyreactivity
18,QVQLVESGGGLVQAGGSLRLSCADSGIIFKGYDMGWYSQPPGKEREVVAAIYSGSTNYADSVKGRFTISRDNAKNTVYLQMNSLKPEDTAVYYCNSDLGRATFYQRVFIERGGYWGQGTQVTVSS,low polyreactivity
19,QVQLVESGGGLVQAGGSLRLSCADSGITFFIYAMGWYIQAPGKERELVAAISGRSGSTYYADSVKGRFTISRDNAKNTVYLQMNSLKPEDTAVYYCAAGLTFFSYSLDYWGQGTQVTVSS,low polyreactivity
20,QVQLVESGGGLVQAGGSLRLSCADSGITFPVNDMGWSRQAHGKEREFVADITSSGGNTYYADSVKGRFTISRDNAKNTVYLKMNSLIPEDTAVYYCNADDGYFYVYQGWYEEMDYWGQGNQVTVSS,high polyreactivity

row,Sequence,polyreactivity (PSR sort gate)
1,QVQLVESGGGLVQAGGSLRLSCADSGITFSVYAMGWYRQAPGKERELVASISSGGTSTYYADSVKGRFTISRDNAKNTVYLQMNSQKPEDTAVYYCAAYSYYTGDQYSYDYWGQGTQVTVSS,low polyreactivity
2,QVQLVESGGGLVQAGGSLRLSCADSGITFWTNTMGWYRQAPGKERELVAVITSGGTTNYADSVKGRFTISRDNAKNTVYLQMNSLKPEDTAVYYCAKKYGYFGLHGYWGQGTQVTVSS,high polyreactivity
3,QVQLVESGGGLVQAGGSLRLSCADSGLTFYRYAMGWYRQAPGKERELVAAIRVSGNTYYADSVKGRFTISRDNAKNTVYLQMNSLKPEDTAVYYCAAKPYYFYGMDYWGQGTQVTVSS,high polyreactivity
4,QVQLVESGGGLVQAGGSLRLSCADSGNIFRSYKGWYRQAPGKERELVASISRRGGSTYYADSVKGRFTISRDNAKNTVYLQINSLKPEDSAVYYCARRWSWVNGVFGLYWGQGTQVTLSS,high polyreactivity
5,QVQLVESGGGLVQAGGSLRLSCADSGNTFPSYVMGWYRQAPGKERELVAAINRGGGTYYADSVKGRFTISRDNAKNTVYLQMNSLKPEDTAVYYCAVRYQRHPNMDYWGQGTQVTVSS,low polyreactivity
6,QVQLVESGGGLVQAGGSLRLSCADSGNTIYGYAMGWNRQAPGKERELVASITLSGDSTYYADSVKGRFTISRDNAKNTVFLQMNRLKPEDTSVYYCSGVYTYPLGYYHYTYDYWGQGSQVTVSS,low polyreactivity
7,QVQLVESGGGLVQAGGSLRLSCADSGRIFGYYAMGWYRQAPGKERELVAAITVSDGRTNYADSVKGRFTISRDNAKNTVYLQMNSLKPEDTAVYYCAAVTPFRVLYDYWGQGTQVTVSS,low polyreactivity
8,QVQLVESGGGLVQAGGSLRLSCADSGRIFHYNAMGWYRQAPRKERELVAAISTGGSTNYADSVKGRFTISRDNAKNTVYLQMNSLNPEDTAVYYCAADHPVTYPTSKFDYCGQGTQVTVSS,low polyreactivity
9,QVQLVESGGGLVQAGGSLRLSCADSGRIFRRYAMGWYRQAPGKERELVAAITTSGGSTYYADSVKGRFTISRDNAKNTVYLQMNSLKPEDTAVYYCNARSSVYGHRKGSARIPRYDYWGQGTQVTVSS,high polyreactivity
10,QVQLVESGGGLVQAGGSLRLSCADSGRIFVRKAMGWYRQAPGKERELVAAISARGGRTNYADSVKGRFTISRDNAKNTVYLQMNSLKPEDTAVYYCAADGLRAAYLYDYWGQGTQVTVSS,high polyreactivity
11,QVQLVESGGGLVQAGGSLRLSCADSGRIIPSYDMGWYRQAPGKERELVAVIRSSVDGTYYADSVKGRFTISRDNAKNTVYLQMNSLKPEDTAVYDCAADSLTPKSASDYWGQGTQVTVSS,low polyreactivity
12,QVQLVESGGGLVQAGGSLRLSCADSGRTFKFNAMGWYRQAPGKERELVVGITWTGSTTSYADSVKGRFTISRDNAKNTVYLQMNSLKPEDTAVYYCAADKIRFWYHGFYYRGQGTQVTVSS,low polyreactivity
13,QVQLVESGGGLVQAGGSLRLSCADSGRTFRNYAMGRYRQAPGKERELVATITSSGASTYYADSVKGRFTISRDNAKNTVYLQMNSLKPEDTAVYYCAARPYTGRYFLGYYYWGQGTQVTVSS,high polyreactivity
14,QVQLVESGGGLVQAGGSLRLSCADSGRTFRRYKMGWYRQAPGKERELVATISSGGSTYADSVKGRFTISRDNAKNTVYLQMNSLKPEDTAVYYCAARYDVAWYSKRYSWGQGTQVTVSS,high polyreactivity
15,QVQLVESGGGLVQAGGSLRLSCADSGRTFTGYVMGWYRQAPGKEREFVAVIRYRGGGTYYAYSVKGRFTISRDNAKNTVYLQMNSLKPEDTAVYYCSARWRYSYVGDFDYWGQGTQVTVSS,high polyreactivity
16,QVQLVESGGGLVQAGGSLRLSCADSGRTFTNNAMGWYIQAPGKERELVAAITSGGRTNYADSVKGRFTISRDNAKNTVYLQMNSLKPEDTAVYYCAARIPSDGYYYWGQGTQVTVSS,high polyreactivity
17,QVQLVESGGGLVQAGGSLRLSCADSGRTFYYYAMGWYRQAPGKERELVASISYSAGRTYADSVKGRFTISRDNAKNTVYLQMNSLKPEDTAVYYCNADVTTVPYTNDYWGQGTQVTVSS,high polyreactivity
18,QVQLVESGGGLVQAGGSLRLSCADSGRTIRGNAMGWYRQAPGKERELVAAITSSGGGTYYADSVKGRFTISRDNAKNTVYLQMNSLNPEDTAVFYGAAEYRDGYRFSYDYWGQGTQVTVSS,low polyreactivity
19,QVQLVESGGGLVQAGGSLRLSCADSGRTLGVYAMRWYRQAPGKERELVASISFSGGRTYYADSVKGRFTISRDNAKNTVYLQMNSLKPEDTAVYYCAAGGRVRYQTKYRYGYDYWGQGTQVTVSS,low polyreactivity
20,QVQLVESGGGLVQAGGSLRLSCADSGSGGYAMGWYRQAPGKERELVAAIDNGGSTYYADSVKGRFTISRDNAKNTVYLQMNSLKPEDTAVYYCAAAYRDYTQVTAGDYWGQGTQVTVSS,low polyreactivity
